# Measured values as given in patent US20170015742A1 (published 2017).
# Where a chain is given by its changes, count along the chain named. In names and notes the source's numbering stands.
# B1: 4G8.5_GS_9E8.4 (PR-1612489) (bispecific antibody, human IgG1, kappa, L234A L235A)
# heavy: EIQLVQSGSELKKPGASVKVSCKASGYTFTNYGMYWVRQAPGQGLEYMGWINTETGKPTYADDFKGRFVFSLDTSVSTAYLQISSLKAEDTAVYFCARTNYYYRSYIFYFDYWGQGTMVTVSSGGGGSGGGGSEVTLRESGPALVKPTQTLTLTCTFSGFSLSTYGMGVGWIRQPPGKALEWLANIWWDDDKYYNPSLKNRLTISKDTSKNQVVLTMTNMDPVDTATYYCARIESIGTTYSFDYWGQGTMVTVSSASTKGPSVFPLAPSSKSTSGGTAALGCLVKDYFPEPVTVSWNSGALTSGVHTFPAVLQSSGLYSLSSVVTVPSSSLGTQTYICNVNHKPSNTKVDKKVEPKSCDKTHTCPPCPAPEAAGGPSVFLFPPKPKDTLMISRTPEVTCVVVDVSHEDPEVKFNWYVDGVEVHNAKTKPREEQYNSTYRVVSVLTVLHQDWLNGKEYKCKVSNKALPAPIEKTISKAKGQPREPQVYTLPPSREEMTKNQVSLTCLVKGFYPSDIAVEWESNGQPENNYKTTPPVLDSDGSFFLYSKLTVDKSRWQQGNVFSCSVMHEALHNAYTQKSLSLSPGK
# light: ATQLTQSPSLSASVGDRVTITCRASESVSTHMHWYQQKPGKQPKLLIYGASNLESGVPSRFSGSGSGTDFTLTISSLQPEDFATYFCQQSWNDPFTFGQGTKLEIKGGSGGGGSGGEFVLTQSPGTLSLSPGERATLSCERSSGDIGDSYVSWYQQKPGQAPRLVIYADDQRPSGIPDRFSGSGSGTDFTLTISRLEPEDFAVYYCQSYDINIDIVFGGGTKVEIKRTVAAPSVFIFPPSDEQLKSGTASVVCLLNNFYPREAKVQWKVDNALQSGNSQESVTEQDSKDSTYSLSSTLTLSKADYEKHKVYACEVTHQGLSSPVTKSFNRGEC
# notes: DVD-Ig: outer hBDB-4G8.5 (VEGF), inner hBDI-9E8.4 (PDGF), linkers GS-H10/GS-L10(dR); Human IgG1 L234A, L235A, H435A with kappa
# B2: 4G8.5_GS_3E2.1 (PR-1610560) (bispecific antibody, human IgG1, kappa, L234A L235A)
# heavy: EIQLVQSGSELKKPGASVKVSCKASGYTFTNYGMYWVRQAPGQGLEYMGWINTETGKPTYADDFKGRFVFSLDTSVSTAYLQISSLKAEDTAVYFCARTNYYYRSYIFYFDYWGQGTMVTVSSGGGGSGGGGSEVQLVQSGAEVKKPGSSVKVSCKASGYTFTESYMYWVKQAPGQGLELIGRIDPEDGSTDYVEKFKNKATLTADKSTSTAYMELSSLRSEDTAVYFCARFGARSYFYPMDAWGQGTTVTVSSASTKGPSVFPLAPSSKSTSGGTAALGCLVKDYFPEPVTVSWNSGALTSGVHTFPAVLQSSGLYSLSSVVTVPSSSLGTQTYICNVNHKPSNTKVDKKVEPKSCDKTHTCPPCPAPEAAGGPSVFLFPPKPKDTLMISRTPEVTCVVVDVSHEDPEVKFNWYVDGVEVHNAKTKPREEQYNSTYRVVSVLTVLHQDWLNGKEYKCKVSNKALPAPIEKTISKAKGQPREPQVYTLPPSREEMTKNQVSLTCLVKGFYPSDIAVEWESNGQPENNYKTTPPVLDSDGSFFLYSKLTVDKSRWQQGNVFSCSVMHEALHNAYTQKSLSLSPGK
# light: ATQLTQSPSLSASVGDRVTITCRASESVSTHMHWYQQKPGKQPKLLIYGASNLESGVPSRFSGSGSGTDFTLTISSLQPEDFATYFCQQSWNDPFTFGQGTKLEIKGGSGGGGSGGETVLTQSPATLSLSPGERATLSCRASESVSTLMHWYQQKPGQQPRLLIYGASNLESGVPARFSGSGSGTDFTLTISSLEPEDFAVYFCQQSWNDPWTFGGGTKVEIKRTVAAPSVFIFPPSDEQLKSGTASVVCLLNNFYPREAKVQWKVDNALQSGNSQESVTEQDSKDSTYSLSSTLTLSKADYEKHKVYACEVTHQGLSSPVTKSFNRGEC
# notes: DVD-Ig: outer hBDB-4G8.5 (VEGF), inner hBFU-3E2.1 (PDGF), linkers GS-H10/GS-L10(dR); Human IgG1 L234A, L235A, H435A with kappa
# B3: 9E8.4-SS-4G8.3 (PR-1563990) (bispecific antibody, human IgG1, kappa, L234A L235A)
# heavy: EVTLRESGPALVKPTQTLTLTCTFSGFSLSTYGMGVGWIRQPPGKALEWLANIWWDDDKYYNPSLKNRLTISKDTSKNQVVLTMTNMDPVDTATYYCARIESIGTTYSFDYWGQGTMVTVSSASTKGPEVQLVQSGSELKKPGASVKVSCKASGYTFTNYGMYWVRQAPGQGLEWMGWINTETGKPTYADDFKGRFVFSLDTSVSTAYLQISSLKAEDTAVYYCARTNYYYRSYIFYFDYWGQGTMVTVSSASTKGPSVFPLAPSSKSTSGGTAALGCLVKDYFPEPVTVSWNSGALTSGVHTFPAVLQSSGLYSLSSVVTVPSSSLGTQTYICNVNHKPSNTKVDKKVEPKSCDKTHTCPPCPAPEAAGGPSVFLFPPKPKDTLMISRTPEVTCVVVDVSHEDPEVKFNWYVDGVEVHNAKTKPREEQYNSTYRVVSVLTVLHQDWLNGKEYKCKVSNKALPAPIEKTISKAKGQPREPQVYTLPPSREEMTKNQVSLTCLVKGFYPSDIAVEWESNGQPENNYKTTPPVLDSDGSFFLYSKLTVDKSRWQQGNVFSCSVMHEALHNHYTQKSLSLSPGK
# light: EFVLTQSPGTLSLSPGERATLSCERSSGDIGDSYVSWYQQKPGQAPRLVIYADDQRPSGIPDRFSGSGSGTDFTLTISRLEPEDFAVYYCQSYDINIDIVFGGGTKVEIKGTVAAPDTVLTQSPATLSLSPGERATLSCRASESVSTHMHWYQQKPGQAPRLLIYGASNLESGVPARFSGSGSGTDFTLTISSLEPEDFAVYFCQQSWNDPFTFGQGTKLEIKRTVAAPSVFIFPPSDEQLKSGTASVVCLLNNFYPREAKVQWKVDNALQSGNSQESVTEQDSKDSTYSLSSTLTLSKADYEKHKVYACEVTHQGLSSPVTKSFNRGEC
# notes: DVD-Ig; outer hBDI-9E8.4 (PDGF), linkers HG-short/LK-short, inner hBDB-4G8.3 (VEGF); human IgG1 L234A, L235A / kappa
# B4: 9E8.4-LS-4G8.3 (PR-1564009) (bispecific antibody, human IgG1, kappa, L234A L235A)
# heavy: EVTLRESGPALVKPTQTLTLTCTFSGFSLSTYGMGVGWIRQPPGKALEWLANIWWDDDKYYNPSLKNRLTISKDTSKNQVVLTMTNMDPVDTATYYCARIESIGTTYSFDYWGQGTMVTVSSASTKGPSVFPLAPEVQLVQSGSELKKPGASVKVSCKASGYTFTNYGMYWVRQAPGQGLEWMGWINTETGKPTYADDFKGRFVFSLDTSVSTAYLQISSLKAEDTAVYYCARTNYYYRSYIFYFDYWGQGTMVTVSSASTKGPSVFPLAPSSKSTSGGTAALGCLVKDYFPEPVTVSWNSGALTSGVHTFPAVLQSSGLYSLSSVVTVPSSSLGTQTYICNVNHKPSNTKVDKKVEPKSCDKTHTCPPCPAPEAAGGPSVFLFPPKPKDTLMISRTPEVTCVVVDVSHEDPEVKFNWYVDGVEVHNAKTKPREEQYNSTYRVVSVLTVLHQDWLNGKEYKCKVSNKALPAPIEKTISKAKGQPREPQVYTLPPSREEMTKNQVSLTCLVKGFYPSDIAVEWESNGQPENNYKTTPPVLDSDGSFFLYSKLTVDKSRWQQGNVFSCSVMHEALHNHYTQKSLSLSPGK
# light: B3 light
# notes: DVD-Ig; outer hBDI-9E8.4 (PDGF), linkers HG-long/LK-short, inner hBDB-4G8.3 (VEGF); human IgG1 L234A, L235A / kappa
# B5: 9E8.4-GS-4G8.3 (PR-1563988) (bispecific antibody, human IgG1, kappa, L234A L235A)
# heavy: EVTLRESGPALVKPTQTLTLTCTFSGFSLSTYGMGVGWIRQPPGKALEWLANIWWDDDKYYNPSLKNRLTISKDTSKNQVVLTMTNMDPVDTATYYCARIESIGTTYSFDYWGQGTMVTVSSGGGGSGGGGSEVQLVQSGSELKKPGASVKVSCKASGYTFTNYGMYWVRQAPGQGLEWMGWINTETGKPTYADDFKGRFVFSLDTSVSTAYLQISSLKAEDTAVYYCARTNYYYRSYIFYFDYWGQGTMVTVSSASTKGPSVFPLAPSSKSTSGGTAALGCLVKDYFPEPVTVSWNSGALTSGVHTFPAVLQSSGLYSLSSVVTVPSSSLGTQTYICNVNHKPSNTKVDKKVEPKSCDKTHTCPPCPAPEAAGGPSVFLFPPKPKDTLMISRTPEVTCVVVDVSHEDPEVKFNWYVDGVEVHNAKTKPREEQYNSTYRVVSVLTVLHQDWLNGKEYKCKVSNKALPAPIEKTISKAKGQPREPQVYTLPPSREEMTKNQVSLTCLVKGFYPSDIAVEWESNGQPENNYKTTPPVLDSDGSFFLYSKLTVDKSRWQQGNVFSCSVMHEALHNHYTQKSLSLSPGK
# light: EFVLTQSPGTLSLSPGERATLSCERSSGDIGDSYVSWYQQKPGQAPRLVIYADDQRPSGIPDRFSGSGSGTDFTLTISRLEPEDFAVYYCQSYDINIDIVFGGGTKVEIKGGGSGGGGSGDTVLTQSPATLSLSPGERATLSCRASESVSTHMHWYQQKPGQAPRLLIYGASNLESGVPARFSGSGSGTDFTLTISSLEPEDFAVYFCQQSWNDPFTFGQGTKLEIKRTVAAPSVFIFPPSDEQLKSGTASVVCLLNNFYPREAKVQWKVDNALQSGNSQESVTEQDSKDSTYSLSSTLTLSKADYEKHKVYACEVTHQGLSSPVTKSFNRGEC
# notes: DVD-Ig; outer hBDI-9E8.4 (PDGF), linkers GS-H10/GS-L10, inner hBDB-4G8.3 (VEGF); human IgG1 L234A, L235A / kappa
# B6: 4G8.3-GS(9)-9E8.4 (g) (PR-1572102) (bispecific antibody, human IgG1, kappa, L234A L235A)
# heavy: B1 heavy with I2V, Y47W, F95Y
# light: DTVLTQSPATLSLSPGERATLSCRASESVSTHMHWYQQKPGQAPRLLIYGASNLESGVPARFSGSGSGTDFTLTISSLEPEDFAVYFCQQSWNDPFTFGQGTKLEIKRGGSGGGGSGEFVLTQSPGTLSLSPGERATLSCERSSGDIGDSYVSWYQQKPGQAPRLVIYADDQRPSGIPDRFSGSGSGTDFTLTISRLEPEDFAVYYCQSYDINIDIVFGGGTKVEIKRTVAAPSVFIFPPSDEQLKSGTASVVCLLNNFYPREAKVQWKVDNALQSGNSQESVTEQDSKDSTYSLSSTLTLSKADYEKHKVYACEVTHQGLSSPVTKSFNRGEC
# notes: DVD-Ig; outer hBDB-4G8.3 (VEGF), linkers GS-H10/GS-L10, inner hBDI-9E8.4 (PDGF); human IgG1 L234A, L235A, H435A / kappa; also called 4G8.3-GS-9E8.4 (g); hu VEGF 4G8.3-GS-hu PDGF 9E8.4 (germline) [hu IgG1/k]; LALA H435A
# B7: 4G8.3-GS(noR)-9E8.4 (g) (PR-1572104) (bispecific antibody, human IgG1, kappa, L234A L235A)
# heavy: B1 heavy with I2V, Y47W, F95Y
# light: B6 light with R108G, G110S, S111G, G115S, S116G
# notes: DVD-Ig; outer hBDB-4G8.3 (VEGF), linkers GS-H10/GS-L10(dR), inner hBDI-9E8.4 (PDGF); human IgG1 L234A, L235A, H435A / kappa
# B8: 4G8.3-GS-9E8.4 (PR-1564010) (bispecific antibody, human IgG1, kappa, L234A L235A)
# heavy: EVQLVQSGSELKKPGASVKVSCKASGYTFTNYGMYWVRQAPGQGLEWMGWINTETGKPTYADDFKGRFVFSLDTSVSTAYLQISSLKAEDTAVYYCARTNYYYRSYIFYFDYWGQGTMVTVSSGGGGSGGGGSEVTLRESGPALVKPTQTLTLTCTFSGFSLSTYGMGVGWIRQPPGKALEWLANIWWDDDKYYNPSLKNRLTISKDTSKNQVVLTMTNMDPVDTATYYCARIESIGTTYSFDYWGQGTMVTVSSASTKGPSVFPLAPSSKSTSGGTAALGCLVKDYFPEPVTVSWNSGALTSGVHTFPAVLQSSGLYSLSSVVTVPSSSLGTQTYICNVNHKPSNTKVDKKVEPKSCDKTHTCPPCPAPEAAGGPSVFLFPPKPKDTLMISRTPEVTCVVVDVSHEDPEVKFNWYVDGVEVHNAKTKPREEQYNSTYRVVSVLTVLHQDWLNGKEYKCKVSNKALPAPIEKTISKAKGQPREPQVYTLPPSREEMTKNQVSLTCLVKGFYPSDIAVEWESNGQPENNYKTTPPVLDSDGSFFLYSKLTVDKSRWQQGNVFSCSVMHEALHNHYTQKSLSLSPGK
# light: B6 light with R228G
# notes: DVD-Ig; outer hBDB-4G8.3 (VEGF), linkers GS-H10/GS-L10, inner hBDI-9E8.4 (PDGF); human IgG1 L234A, L235A / kappa
# B9: 9E8.4-SL-4G8.3 (PR-1563998) (bispecific antibody, human IgG1, kappa, L234A L235A)
# heavy: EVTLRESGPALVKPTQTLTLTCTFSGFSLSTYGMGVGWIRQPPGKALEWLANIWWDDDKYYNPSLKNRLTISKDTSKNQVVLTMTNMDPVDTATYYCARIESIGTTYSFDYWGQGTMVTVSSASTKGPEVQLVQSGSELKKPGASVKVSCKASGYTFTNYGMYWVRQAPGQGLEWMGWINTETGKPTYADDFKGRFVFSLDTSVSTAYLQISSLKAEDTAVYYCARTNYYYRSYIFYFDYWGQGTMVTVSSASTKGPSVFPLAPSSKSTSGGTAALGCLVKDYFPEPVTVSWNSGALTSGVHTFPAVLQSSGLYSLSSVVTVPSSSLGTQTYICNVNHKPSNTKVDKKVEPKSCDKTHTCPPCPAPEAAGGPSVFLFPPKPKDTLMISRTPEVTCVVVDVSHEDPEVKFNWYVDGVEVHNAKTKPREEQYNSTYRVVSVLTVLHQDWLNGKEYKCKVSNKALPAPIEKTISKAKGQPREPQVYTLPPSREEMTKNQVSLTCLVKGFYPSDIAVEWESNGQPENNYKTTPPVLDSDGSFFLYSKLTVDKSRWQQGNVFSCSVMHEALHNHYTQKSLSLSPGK
# light: EFVLTQSPGTLSLSPGERATLSCERSSGDIGDSYVSWYQQKPGQAPRLVIYADDQRPSGIPDRFSGSGSGTDFTLTISRLEPEDFAVYYCQSYDINIDIVFGGGTKVEIKGTVAAPSVFIFPPDTVLTQSPATLSLSPGERATLSCRASESVSTHMHWYQQKPGQAPRLLIYGASNLESGVPARFSGSGSGTDFTLTISSLEPEDFAVYFCQQSWNDPFTFGQGTKLEIKRTVAAPSVFIFPPSDEQLKSGTASVVCLLNNFYPREAKVQWKVDNALQSGNSQESVTEQDSKDSTYSLSSTLTLSKADYEKHKVYACEVTHQGLSSPVTKSFNRGEC
# notes: DVD-Ig; outer hBDI-9E8.4 (PDGF), linkers HG-short/LK-long, inner hBDB-4G8.3 (VEGF); human IgG1 L234A, L235A / kappa
# B10: 4G8.3-SS-9E8.4 (PR-1564011) (bispecific antibody, human IgG1, kappa, L234A L235A)
# heavy: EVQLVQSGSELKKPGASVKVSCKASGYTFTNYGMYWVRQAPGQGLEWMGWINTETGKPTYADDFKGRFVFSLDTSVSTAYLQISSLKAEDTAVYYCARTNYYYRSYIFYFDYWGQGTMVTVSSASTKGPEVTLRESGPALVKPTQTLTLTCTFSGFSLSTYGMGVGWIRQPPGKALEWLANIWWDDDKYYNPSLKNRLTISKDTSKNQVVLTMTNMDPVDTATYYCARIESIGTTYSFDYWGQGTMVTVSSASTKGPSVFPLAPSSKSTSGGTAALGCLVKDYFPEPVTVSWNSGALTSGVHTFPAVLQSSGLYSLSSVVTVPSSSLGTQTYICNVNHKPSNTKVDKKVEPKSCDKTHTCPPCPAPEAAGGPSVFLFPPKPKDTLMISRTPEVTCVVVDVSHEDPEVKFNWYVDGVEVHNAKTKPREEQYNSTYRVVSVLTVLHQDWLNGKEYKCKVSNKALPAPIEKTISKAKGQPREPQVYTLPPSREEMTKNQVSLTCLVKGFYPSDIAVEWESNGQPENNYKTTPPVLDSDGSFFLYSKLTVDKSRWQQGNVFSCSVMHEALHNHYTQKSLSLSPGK
# light: DTVLTQSPATLSLSPGERATLSCRASESVSTHMHWYQQKPGQAPRLLIYGASNLESGVPARFSGSGSGTDFTLTISSLEPEDFAVYFCQQSWNDPFTFGQGTKLEIKRTVAAPEFVLTQSPGTLSLSPGERATLSCERSSGDIGDSYVSWYQQKPGQAPRLVIYADDQRPSGIPDRFSGSGSGTDFTLTISRLEPEDFAVYYCQSYDINIDIVFGGGTKVEIKGTVAAPSVFIFPPSDEQLKSGTASVVCLLNNFYPREAKVQWKVDNALQSGNSQESVTEQDSKDSTYSLSSTLTLSKADYEKHKVYACEVTHQGLSSPVTKSFNRGEC
# notes: DVD-Ig; outer hBDB-4G8.3 (VEGF), linkers HG-short/LK-short, inner hBDI-9E8.4 (PDGF); human IgG1 L234A, L235A / kappa
# Molecular target: T1, VEGF-A (human, UniProt P15692 207-395)
# T1 construct: also called hVEGF165
# Assay: Biacore SPR; DVD-Ig captured on anti-human Fc, antigen injected
# Outline: (§1)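 Antibodies or DVD-Ig molecules (1 μg/ml) were captured on an anti-human Fc CM5 surface, with antigen injected in solution and responses referenced to the capture-only surface. Rate constants came from a global 1:1 Langmuir fit, and KD = koff/kon.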
# T1 sequence (P15692 other isoform, or with tags, fused parts or gaps limits assumed): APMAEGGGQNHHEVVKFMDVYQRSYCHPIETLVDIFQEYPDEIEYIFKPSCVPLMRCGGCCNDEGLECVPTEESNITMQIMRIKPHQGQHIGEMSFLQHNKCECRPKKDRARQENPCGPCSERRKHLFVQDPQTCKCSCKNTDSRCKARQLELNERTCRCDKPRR
Kd,kon,Binder
0.0085 nM,5.4e+06 M⁻¹ s⁻¹,B1
0.0087 nM,4.8e+06 M⁻¹ s⁻¹,B2

# Molecular target: T2, PDGF-BB (human, UniProt P01127 82-190, limits assumed)
# T2 construct: also called human PDGF-BB; hPDGF-BB
# Assay: as above
# Outline: as §1
# T2 sequence (P01127 82-190 limits assumed): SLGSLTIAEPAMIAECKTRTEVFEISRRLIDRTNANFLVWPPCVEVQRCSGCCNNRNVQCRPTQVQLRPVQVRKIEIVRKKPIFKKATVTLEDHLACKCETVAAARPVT
Kd,kon,Binder
0.028 nM,5.8e+06 M⁻¹ s⁻¹,B1
0.013 nM,4.1e+07 M⁻¹ s⁻¹,B2

# Molecular target: VEGF-A (UniProt P15692-4 27-191, limits assumed)
# Assay: SPR (Biacore), DVD-Ig captured by anti-human Fc, antigen in flow
# Method: (§2) For example, approximately 9000 RU of goat anti-human Fc specific polyclonal antibody (Thermo Fisher Scientific Inc., Rockford, Ill.) diluted in 10 mM sodium acetate (pH 4.5) is directly immobilized across a CM5 research grade biosensor chip using a standard amine coupling kit according to manufacturer's instructions and procedures at 25 μg/ml. Unreacted moieties on the biosensor surface were blocked with ethanolamine. For kinetic analysis, rate equations derived from the 1:1 Langmuir binding model were fitted simultaneously to multiple antigen injections (using global fit analysis) with the use of Scrubber 2 (BioLogic Software), Biacore Biaevaluation 4.0.1 software or Biacore T100 Evaluation software. Purified antibodies or DVD-Ig molecules were diluted in running buffer for capture across goat anti-human Fc reaction surfaces. Antibodies or DVD-Ig molecules to be captured as a ligand (1 μg/ml) were injected over reaction matrices at a flow rate of 10 μl/minute. During the assay, all measurements were referenced against the capture surface alone (i.e., with no captured antibody or DVD-Ig molecule). […] The equilibrium dissociation constant KD (M) of the reaction between antibodies and the target antigen was then calculated from the kinetic rate constants by the following formula: KD=Koff/Kₒₙ. Binding was recorded as a function of time and kinetic rate constants were calculated.
# VEGF-A (UniProt P15692-4 27-191, limits assumed), sequence (P15692 other isoform, or with tags, fused parts or gaps limits assumed): as the sequence (P15692 other isoform, or with tags, fused parts or gaps limits assumed) above
Kd,kon,Binder
0.78 nM,160000 M⁻¹ s⁻¹,B3
0.2 nM,270000 M⁻¹ s⁻¹,B4
0.29 nM,220000 M⁻¹ s⁻¹,B5
0.013 nM,6e+06 M⁻¹ s⁻¹,B6
0.011 nM,6.1e+06 M⁻¹ s⁻¹,B7
0.017 nM,3.3e+06 M⁻¹ s⁻¹,B8
0.12 nM,700000 M⁻¹ s⁻¹,B9
0.013 nM,3.1e+06 M⁻¹ s⁻¹,B10

# Molecular target: PDGF-BB (UniProt P01127 82-190)
# Assay: as above
# Method: as §2
# PDGF-BB (UniProt P01127 82-190), sequence (P01127 82-190): as the sequence (P01127 82-190 limits assumed) above
Kd,kon,Binder
0.02 nM,1e+07 M⁻¹ s⁻¹,B3
0.02 nM,1e+07 M⁻¹ s⁻¹,B4
0.02 nM,1e+07 M⁻¹ s⁻¹,B5
0.013 nM,1.3e+07 M⁻¹ s⁻¹,B6
0.0089 nM,1.5e+07 M⁻¹ s⁻¹,B7
0.013 nM,1e+07 M⁻¹ s⁻¹,B8
0.019 nM,1e+07 M⁻¹ s⁻¹,B9
0.019 nM,7.5e+06 M⁻¹ s⁻¹,B10
